Experimental data as given in patent publication US11446371B2, “Targeting of ligand binding sites in ClfA” (THE TEXAS A&M UNIVERSITY SYSTEM, priority 2015, dated 2022).
Residue numbers refer to the chain shown, from its start. Entries after “also recorded” stand apart in the source; their conditions may differ. Where a SMILES comes first, the peptide text is derived from it.

T1: ClfACC (Staphylococcus aureus, UniProt Q53653, D327C/K541C)
T1 construct: made in house; host or cells: E. coli Topp3
T1 sequence (Q53653 229-545 D327C/K541C limits assumed): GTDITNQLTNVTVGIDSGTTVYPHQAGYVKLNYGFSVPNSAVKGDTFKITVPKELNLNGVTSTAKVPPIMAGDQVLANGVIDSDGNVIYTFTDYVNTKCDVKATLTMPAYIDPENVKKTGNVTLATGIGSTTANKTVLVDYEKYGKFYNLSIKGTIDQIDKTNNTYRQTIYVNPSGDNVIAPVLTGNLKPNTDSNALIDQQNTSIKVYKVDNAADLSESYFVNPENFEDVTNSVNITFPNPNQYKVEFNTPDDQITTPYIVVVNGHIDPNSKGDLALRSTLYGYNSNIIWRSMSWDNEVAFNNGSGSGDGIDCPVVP

T2: immobilized human Fg (Homo sapiens, UniProt P02671+P02675+P02679)
T2 construct: immobilized intact Fg
T2 sequence (P02671 20-644 isoform P02671-2 limits assumed): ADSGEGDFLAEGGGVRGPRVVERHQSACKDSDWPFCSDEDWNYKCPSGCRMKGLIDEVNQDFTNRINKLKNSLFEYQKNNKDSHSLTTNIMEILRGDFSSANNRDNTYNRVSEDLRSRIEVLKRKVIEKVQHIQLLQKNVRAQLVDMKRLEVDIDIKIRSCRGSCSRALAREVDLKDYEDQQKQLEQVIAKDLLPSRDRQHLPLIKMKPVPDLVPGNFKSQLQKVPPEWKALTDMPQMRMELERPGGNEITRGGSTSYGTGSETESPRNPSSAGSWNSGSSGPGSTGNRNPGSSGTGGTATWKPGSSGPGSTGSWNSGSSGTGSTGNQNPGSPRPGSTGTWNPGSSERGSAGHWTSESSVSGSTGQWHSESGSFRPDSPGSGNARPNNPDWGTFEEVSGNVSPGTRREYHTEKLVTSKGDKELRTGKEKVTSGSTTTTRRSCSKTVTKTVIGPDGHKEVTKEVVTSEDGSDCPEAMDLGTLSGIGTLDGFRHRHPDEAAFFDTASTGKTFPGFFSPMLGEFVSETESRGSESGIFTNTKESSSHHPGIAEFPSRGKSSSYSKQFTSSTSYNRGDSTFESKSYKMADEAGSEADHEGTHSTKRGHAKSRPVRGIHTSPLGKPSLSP
T2 sequence (P02675 31-491): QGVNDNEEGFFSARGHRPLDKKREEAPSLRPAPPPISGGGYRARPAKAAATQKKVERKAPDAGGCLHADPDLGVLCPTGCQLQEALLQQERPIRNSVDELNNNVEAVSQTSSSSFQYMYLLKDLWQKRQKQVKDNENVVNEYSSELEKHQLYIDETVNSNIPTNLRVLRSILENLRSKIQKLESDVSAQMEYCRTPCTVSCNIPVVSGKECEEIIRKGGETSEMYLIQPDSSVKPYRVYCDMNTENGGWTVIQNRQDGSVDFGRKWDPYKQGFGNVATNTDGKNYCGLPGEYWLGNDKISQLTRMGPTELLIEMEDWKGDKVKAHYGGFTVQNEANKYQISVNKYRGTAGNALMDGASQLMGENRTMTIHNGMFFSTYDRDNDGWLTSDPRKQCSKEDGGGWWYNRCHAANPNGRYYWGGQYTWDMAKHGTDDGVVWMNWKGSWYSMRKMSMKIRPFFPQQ
T2 sequence (P02679 27-437 isoform P02679-2 limits assumed): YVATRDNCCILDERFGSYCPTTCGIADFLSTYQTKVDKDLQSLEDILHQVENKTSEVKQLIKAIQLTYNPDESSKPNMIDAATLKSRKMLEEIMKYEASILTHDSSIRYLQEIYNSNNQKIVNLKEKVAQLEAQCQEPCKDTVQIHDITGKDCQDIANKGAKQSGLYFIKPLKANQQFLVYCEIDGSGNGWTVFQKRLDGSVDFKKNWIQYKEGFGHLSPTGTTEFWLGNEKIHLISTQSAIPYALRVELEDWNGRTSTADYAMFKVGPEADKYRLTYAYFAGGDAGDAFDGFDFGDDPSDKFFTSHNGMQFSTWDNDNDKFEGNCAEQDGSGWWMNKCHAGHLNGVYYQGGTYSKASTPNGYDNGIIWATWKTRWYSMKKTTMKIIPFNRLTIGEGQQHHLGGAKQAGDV

B1: ClfA370-559: recombinant form of the ClfA N3 subdomain (protein)
chain: EKYGKFYNLSIKGTIDQIDKTNNTYRQTIYVNPSGDNVIAPVLTGNLKPNTDSNALIDQQNTSIKVYKVDNAADLSESYFVNPENFEDVTNSVNITFPNPNQYKVEFNTPDDQITTPYIVVVNGHIDPNSKGDLALRSTLYGYNSNIIWRSMSWDNEVAFNNGSGSGDGIDKPVVPEQPDEPGEIEPIPE
B2: ClfAPWY (protein)
chain: VAADAPAAGTDITNQLTNVTVGIDSGTTVYPHQAGYVKLNYGFSVPNSAVKGDTFKITVPKELNLNGVTSTAKVPPIMAGDQVLANGVIDSDGNVIYTFTDYVNTKDDVKATLTMPAYIDPENVKKTGNVTLATGIGSTTANKTVLVDYEKYGKFYNLSIKGTIDQIDKTNNTYRQTIYVNPSGDNVIAPVLTGNLKPNTDSNALIDQQNTSIKVYKVDNAADLSESYFVNPENFEDVTNSVNITFANPNQYKVEFNTPDDQITTPYIVVVNGHIDPNSKGDLALRSTLYGANSNIIARSMSWDNEVAFNNGSGSGDGIDKPVVPEQPDEPGEIEPIPE
B3: ClfA221-559: recombinant ClfA residues 221-559 (N2N3 subdomains) from S. aureus strain Newman (protein)
chain: B2 chain with A247P, A292Y, A298W

Assays:
ClfACC = biological target: T1, ClfACC; test: ITC, synthetic C-terminal γ-chain peptide titrated into ClfACC; type: binding, S. aureus; settings: peptide titrated into cell containing ClfACC
Fg binding to ClfA = Fg binding to ClfA (Staphylococcus aureus, UniProt Q53653); test: Reduction of Fg binding to ClfA by synthetic Fg γ-peptide; design: species or system S. aureus; settings: even at high concentrations
immobilized human Fg [1] = biological target: T2, immobilized human Fg; test: SPR binding of ClfA proteins to immobilized Fg; settings: 0.1 μM ClfA221-559 variant
Experimental: (§1) Surface Plasmon Resonance. Surface plasmon resonance-based binding experiments were performed at 25° C. on a Biacore 3000 (GE Healthcare/Biacore, Uppsala, Sweden). Phosphate buffered saline (PBS-T: 8.06 mM Na2HPO4, 1.94 mM KH2PO4, 2.7 mM KCl and 137 mM NaCl, pH 7.4, and 0.005% Tween-20) was used as running buffer for immobilization and binding experiments. Flow rate of 5 μl/min was used during immobilization and a higher rate 30 or 50 μl/min for binding experiments. The fibrinogen (Fg) surface was prepared on a CM5 sensor chip via standard amine-coupling chemistry. A Fg solution (10 μl of 20 μg/ml in sodium citrate, pH5.5) was injected to an activated (4 min) flow cell. After deactivation, about 7000 resonance units (RU) of Fg were immobilized. A reference surface was prepared with activation and deactivation steps but no protein coupled. […] For GST fusion protein capturing, approximately 11000 RU of goat anti-GST antibody (GE Healthcare/Biacore) were immobilized simultaneously on two flow cells on a CM5 sensor chip. GST-tagged Fg γ-peptide (20 μg/ml in PBS-T) was captured by the antibody and created a ligand surface (about 700 RU). The other flow cell with GST captured (about 900 RU) served as a reference surface. […] All SPR responses were baseline corrected by subtracting response generated from reference surface.
(§2) Since most of the known and putative Fg interactive sites in ClfA are located within the N3 subdomain we examined the interactions of a recombinant form of N3 (ClfA370-559) to the different forms of immobilized Fg.

immobilized Tefibazumab = test: SPR binding of ClfA221-559 variants to immobilized Tefibazumab; settings: 0.1 μM ClfA221-559 variant
Description: Surface Plasmon Resonance.
FIG. 3A is a ribbon diagram of ClfA-N3 domain showing the positions of PWY. The Fg γ-peptide is shown as a ribbon to show the location of the Fg γ-peptide binding site. […] The amino acid substitutions in the variant proteins were made at the mAb binding site. FIG. 3C is a graph of ClfAPWY and Fg-γ P16 peptide interaction measured by ITC.

immobilized human Fg [2] = test: SPR binding of ClfA proteins to immobilized Fg; settings: immobilized Fg, Fg D-fragment, GST-γ-peptide
Experimental: as §1, §2

Molecule	binding to immobilized human Fg (immobilized human Fg [1])	binding to immobilized Tefibazumab (immobilized Tefibazumab)	fold difference in KD between binding to γ-peptide and to Fg or Fg D-fragment (immobilized human Fg [2])	further results
CC(C)C[C@H](NC(=O)[C@H](Cc1c[nH]cn1)NC(=O)[C@H](Cc1c[nH]cn1)NC(=O)[C@H](CCC(N)=O)NC(=O)[C@H](CCC(N)=O)NC(=O)CNC(=O)[C@H](CCC(=O)O)NC(=O)CN)C(=O)NCC(=O)NCC(=O)N[C@@H](C)C(=O)N[C@@H](CCCCN)C(=O)N[C@@H](CCC(N)=O)C(=O)N[C@@H](C)C(=O)NCC(=O)N[C@@H](CC(=O)O)C(=O)N[C@H](C(=O)O)C(C)C [Fg γ-peptide] (H-GEGQQHHLGGAKQAGDV-OH; N-terminus and C-terminus assumed)	–	–	–	Kd (ClfACC): 9 µM; maximum reduction of Fg binding to ClfA (Fg binding to ClfA): ~50%
Y512A	reduced binding	slightly reduced binding	–	–
B1	–	–	about 10 fold	–
B2	minimal binding	almost completely abolished; also recorded: completely lost its ability to bind	–	–
B3	–	–	4-7 fold	–
